Source: paper PMC4834642, “Orthogonal ring-closing alkyne and olefin metathesis for the synthesis of small GTPase-targeting bicyclic peptides” (Nature Communications, 2016)

Legend:
peptide 28 = target: T1, peptide 28 (Homo sapiens, UniProt Q6IQ26); assay: fluorescence polarization
T1 chain: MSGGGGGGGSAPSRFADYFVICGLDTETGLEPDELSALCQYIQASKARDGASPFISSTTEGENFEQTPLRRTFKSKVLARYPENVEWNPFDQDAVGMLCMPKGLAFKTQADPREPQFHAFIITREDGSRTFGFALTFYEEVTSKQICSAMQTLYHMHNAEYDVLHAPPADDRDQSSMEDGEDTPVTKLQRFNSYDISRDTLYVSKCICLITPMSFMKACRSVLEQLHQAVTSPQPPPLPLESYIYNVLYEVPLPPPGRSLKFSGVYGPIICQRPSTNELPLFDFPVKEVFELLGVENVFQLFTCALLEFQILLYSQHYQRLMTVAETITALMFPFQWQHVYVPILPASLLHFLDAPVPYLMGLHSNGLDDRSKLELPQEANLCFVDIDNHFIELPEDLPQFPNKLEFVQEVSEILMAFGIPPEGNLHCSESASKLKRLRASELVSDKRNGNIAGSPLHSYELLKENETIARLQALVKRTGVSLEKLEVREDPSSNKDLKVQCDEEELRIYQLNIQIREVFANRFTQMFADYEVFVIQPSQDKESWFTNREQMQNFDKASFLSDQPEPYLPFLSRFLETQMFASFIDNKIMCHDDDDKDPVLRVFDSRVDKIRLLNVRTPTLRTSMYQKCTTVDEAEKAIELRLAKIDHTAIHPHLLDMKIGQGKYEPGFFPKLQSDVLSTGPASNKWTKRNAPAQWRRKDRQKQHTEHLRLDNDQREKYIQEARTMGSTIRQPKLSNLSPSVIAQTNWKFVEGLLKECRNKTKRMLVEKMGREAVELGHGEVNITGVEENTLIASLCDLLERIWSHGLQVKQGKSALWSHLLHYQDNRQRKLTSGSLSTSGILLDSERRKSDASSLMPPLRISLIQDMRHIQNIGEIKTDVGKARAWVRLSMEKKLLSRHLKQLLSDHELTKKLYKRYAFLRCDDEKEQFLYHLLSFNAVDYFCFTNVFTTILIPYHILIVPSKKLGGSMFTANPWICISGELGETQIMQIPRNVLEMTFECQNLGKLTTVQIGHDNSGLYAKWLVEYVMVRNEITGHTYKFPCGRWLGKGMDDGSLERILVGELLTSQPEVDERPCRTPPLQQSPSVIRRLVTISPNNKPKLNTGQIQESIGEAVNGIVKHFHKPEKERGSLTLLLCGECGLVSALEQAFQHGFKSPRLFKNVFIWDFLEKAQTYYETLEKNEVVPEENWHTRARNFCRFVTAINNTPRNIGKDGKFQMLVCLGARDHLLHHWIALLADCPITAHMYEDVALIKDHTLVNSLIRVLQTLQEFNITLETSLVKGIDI

peptide 25 [1] = target: T2, peptide 25 (Homo sapiens, UniProt Q6IQ26); assay: fluorescence polarization
T2 chain: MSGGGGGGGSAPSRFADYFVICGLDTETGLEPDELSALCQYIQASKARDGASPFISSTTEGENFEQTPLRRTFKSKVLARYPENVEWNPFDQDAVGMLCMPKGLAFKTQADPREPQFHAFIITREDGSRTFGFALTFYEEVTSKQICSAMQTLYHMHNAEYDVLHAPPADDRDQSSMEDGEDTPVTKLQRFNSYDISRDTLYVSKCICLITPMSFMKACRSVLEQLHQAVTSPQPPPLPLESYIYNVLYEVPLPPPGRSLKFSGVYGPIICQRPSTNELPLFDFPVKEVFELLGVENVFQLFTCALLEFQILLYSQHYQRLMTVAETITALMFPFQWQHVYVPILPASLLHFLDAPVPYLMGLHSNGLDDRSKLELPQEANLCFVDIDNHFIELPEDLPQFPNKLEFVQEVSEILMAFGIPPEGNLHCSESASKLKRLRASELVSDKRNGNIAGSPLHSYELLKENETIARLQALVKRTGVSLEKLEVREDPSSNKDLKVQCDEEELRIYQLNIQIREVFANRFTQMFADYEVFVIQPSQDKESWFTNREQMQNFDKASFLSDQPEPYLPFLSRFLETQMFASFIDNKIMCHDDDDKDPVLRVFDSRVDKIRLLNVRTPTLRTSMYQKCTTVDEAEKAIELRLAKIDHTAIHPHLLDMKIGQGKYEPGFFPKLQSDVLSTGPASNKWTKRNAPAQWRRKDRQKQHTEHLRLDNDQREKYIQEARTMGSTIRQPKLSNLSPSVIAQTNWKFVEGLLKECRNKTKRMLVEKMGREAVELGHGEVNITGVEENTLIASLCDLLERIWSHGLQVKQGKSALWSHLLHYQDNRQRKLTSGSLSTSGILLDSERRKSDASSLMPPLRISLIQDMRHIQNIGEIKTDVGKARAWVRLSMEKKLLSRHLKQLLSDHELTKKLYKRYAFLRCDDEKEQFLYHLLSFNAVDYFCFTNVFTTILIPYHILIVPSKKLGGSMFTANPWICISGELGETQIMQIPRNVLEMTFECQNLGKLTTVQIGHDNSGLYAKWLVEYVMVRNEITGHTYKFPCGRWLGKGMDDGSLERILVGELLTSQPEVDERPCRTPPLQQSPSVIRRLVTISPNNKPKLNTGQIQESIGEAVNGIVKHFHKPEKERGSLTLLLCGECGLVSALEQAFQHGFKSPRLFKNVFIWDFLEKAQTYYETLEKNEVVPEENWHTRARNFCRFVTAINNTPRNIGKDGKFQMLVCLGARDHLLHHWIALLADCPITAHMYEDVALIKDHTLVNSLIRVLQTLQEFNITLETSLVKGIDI

peptide 25 [2] = target: T2, peptide 25; assay: microscale thermophoresis (fluorescence intensity)
StRIP3 [3] = target: T3, StRIP3 (Homo sapiens, UniProt Q6IQ26); assay: fluorescence polarization
T3 chain: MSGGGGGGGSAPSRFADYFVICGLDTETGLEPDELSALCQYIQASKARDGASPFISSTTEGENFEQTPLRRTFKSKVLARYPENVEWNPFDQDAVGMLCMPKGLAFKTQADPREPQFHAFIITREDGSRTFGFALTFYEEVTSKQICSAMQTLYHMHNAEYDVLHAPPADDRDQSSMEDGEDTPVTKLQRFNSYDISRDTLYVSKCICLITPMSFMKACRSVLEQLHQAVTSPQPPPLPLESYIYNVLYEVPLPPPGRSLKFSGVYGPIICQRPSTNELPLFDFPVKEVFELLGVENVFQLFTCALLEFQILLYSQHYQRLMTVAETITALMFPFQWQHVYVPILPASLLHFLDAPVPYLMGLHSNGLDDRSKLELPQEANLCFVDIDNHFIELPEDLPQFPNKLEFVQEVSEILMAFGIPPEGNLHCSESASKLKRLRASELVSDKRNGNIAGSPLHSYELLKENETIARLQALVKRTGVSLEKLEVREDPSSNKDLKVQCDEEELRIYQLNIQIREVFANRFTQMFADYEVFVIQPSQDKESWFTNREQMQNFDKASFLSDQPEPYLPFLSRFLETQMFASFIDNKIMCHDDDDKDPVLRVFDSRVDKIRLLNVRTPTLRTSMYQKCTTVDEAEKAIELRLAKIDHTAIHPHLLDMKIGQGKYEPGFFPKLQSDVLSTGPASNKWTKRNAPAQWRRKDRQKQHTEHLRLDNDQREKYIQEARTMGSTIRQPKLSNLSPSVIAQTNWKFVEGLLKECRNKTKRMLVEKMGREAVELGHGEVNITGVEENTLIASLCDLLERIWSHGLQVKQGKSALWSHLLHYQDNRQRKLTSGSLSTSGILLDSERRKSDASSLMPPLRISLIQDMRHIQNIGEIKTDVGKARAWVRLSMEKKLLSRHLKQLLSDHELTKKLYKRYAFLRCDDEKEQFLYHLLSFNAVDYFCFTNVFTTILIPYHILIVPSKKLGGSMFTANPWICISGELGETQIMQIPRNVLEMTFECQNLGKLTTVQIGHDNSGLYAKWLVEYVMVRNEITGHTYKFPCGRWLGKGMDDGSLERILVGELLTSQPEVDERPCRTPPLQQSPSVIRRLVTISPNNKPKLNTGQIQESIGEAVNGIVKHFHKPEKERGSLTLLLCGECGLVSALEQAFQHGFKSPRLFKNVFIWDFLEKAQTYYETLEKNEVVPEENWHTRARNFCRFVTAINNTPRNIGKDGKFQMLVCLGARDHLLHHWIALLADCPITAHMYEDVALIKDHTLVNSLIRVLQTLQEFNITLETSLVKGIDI

StRIP3 [4] = target: T3, StRIP3; assay: competition fluorescence polarization
peptide 21 = target: T4, peptide 21 (Homo sapiens, UniProt Q6IQ26); assay: fluorescence polarization
T4 chain: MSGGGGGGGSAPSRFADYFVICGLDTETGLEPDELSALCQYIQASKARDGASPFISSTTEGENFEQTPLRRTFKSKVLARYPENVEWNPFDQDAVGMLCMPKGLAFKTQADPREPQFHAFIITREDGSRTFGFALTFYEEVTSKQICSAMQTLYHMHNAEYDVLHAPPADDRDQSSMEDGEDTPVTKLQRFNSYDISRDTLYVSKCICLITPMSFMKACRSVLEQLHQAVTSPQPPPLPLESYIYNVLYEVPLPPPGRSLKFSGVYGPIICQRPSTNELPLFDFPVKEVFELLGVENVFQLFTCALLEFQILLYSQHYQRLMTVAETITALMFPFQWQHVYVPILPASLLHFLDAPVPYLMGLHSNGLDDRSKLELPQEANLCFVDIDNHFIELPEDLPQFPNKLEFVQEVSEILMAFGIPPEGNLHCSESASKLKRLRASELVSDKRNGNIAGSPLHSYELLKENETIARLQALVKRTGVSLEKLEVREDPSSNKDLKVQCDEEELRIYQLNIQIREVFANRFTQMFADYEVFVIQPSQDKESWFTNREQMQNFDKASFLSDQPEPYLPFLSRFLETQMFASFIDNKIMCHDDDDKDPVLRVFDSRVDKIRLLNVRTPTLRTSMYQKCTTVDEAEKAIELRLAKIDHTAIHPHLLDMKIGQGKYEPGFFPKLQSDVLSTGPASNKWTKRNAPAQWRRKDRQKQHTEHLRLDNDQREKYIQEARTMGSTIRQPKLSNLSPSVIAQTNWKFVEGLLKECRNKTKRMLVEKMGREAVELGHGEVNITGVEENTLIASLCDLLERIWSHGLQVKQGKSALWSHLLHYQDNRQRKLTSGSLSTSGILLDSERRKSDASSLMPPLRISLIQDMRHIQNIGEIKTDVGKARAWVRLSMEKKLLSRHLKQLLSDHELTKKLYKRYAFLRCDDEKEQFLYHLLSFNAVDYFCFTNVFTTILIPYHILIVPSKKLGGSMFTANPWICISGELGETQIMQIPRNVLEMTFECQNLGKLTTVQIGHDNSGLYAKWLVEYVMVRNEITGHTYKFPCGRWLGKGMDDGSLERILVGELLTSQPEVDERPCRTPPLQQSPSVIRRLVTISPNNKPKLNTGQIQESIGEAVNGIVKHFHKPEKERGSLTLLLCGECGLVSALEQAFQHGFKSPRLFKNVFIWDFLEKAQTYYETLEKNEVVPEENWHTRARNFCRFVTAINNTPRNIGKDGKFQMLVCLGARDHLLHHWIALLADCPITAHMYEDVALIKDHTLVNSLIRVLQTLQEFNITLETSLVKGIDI

B1: Rab8a 6-176 (protein)
chain: DYLFKLLLIGDSGVGKTCVLFRFSEDAFNSTFISTIGIDFKIRTIELDGKRIKLQIWDTAGQERFRTITTAYYRGAMGIMLVYDITNEKSFDNIRNWIRNIEEHASADVEKMILGNKCDVNDKRQVSKERGEKLALDYGIKFMETSAKANINVENAFFTLARDIKAKMDKK
modifications: GppNHp-bound Rab8a; bicyclic alkyne/olefin crosslinked StRIP3 derivative, fluorescein-PEG label
Question: How did the Kd (peptide 28) turn out when B1 was run?
Answer: 9.6 µM

B2: Rab8a 6-176 (protein)
chain: DYLFKLLLIGDSGVGKTCVLFRFSEDAFNSTFISTIGIDFKIRTIELDGKRIKLQIWDTAGQERFRTITTAYYRGAMGIMLVYDITNEKSFDNIRNWIRNIEEHASADVEKMILGNKCDVNDKRQVSKERGEKLALDYGIKFMETSAKANINVENAFFTLARDIKAKMDKK
modifications: GppNHp-bound Rab8a; bicyclic olefin/alkyne crosslinked StRIP3 derivative, fluorescein-PEG label
Question: Which results are given for B2?
Answer: Kd (peptide 25 [1]): 6.6 µM; Kd (peptide 25 [2]): 11 µM

B3: Rab8a 6-176 (protein)
chain: DYLFKLLLIGDSGVGKTCVLFRFSEDAFNSTFISTIGIDFKIRTIELDGKRIKLQIWDTAGQERFRTITTAYYRGAMGIMLVYDITNEKSFDNIRNWIRNIEEHASADVEKMILGNKCDVNDKRQVSKERGEKLALDYGIKFMETSAKANINVENAFFTLARDIKAKMDKK
modifications: GppNHp-bound Rab8a; i,i+4 olefin hydrocarbon-stapled peptide, fluorescein-PEG label
Question: With B3 as the binder, how does the Kd (StRIP3 [3]) read?
Answer: 20.7 µM

B4: Rab8a 6-176 (protein)
chain: DYLFKLLLIGDSGVGKTCVLFRFSEDAFNSTFISTIGIDFKIRTIELDGKRIKLQIWDTAGQERFRTITTAYYRGAMGIMLVYDITNEKSFDNIRNWIRNIEEHASADVEKMILGNKCDVNDKRQVSKERGEKLALDYGIKFMETSAKANINVENAFFTLARDIKAKMDKK
modifications: GppNHp-bound Rab8a; acetylated i,i+4 olefin hydrocarbon-stapled peptide
Question: Which IC50 (StRIP3 [4]) does the source give for B4 here?
Answer: 33 µM

B5: Rab8a 6-176 (protein)
chain: DYLFKLLLIGDSGVGKTCVLFRFSEDAFNSTFISTIGIDFKIRTIELDGKRIKLQIWDTAGQERFRTITTAYYRGAMGIMLVYDITNEKSFDNIRNWIRNIEEHASADVEKMILGNKCDVNDKRQVSKERGEKLALDYGIKFMETSAKANINVENAFFTLARDIKAKMDKK
modifications: GppNHp-bound Rab8a; dibrominated olefin macrocyclic StRIP3 derivative, fluorescein-PEG label
Question: With B5 as the binder, how does the Kd (peptide 21) read?
Answer: 10.7 µM
